The values that follow come from publication PMC3734851.

Test [1] has as its target αβ-tubulin (unpolymerized, as used in gel filtration and analytical ultracentrifugation) (yeast) (UniProt P09733). As to the kind of experiment: AUC.
For test [2] the target is unchanged.
The target of test [3] is TOG1-TOG2 of Stu2p (yeast). As to the kind of experiment: AUC.
Test [4] has as its target TOG1-TOG2 of Stu2p (yeast). Kind of test: AUC. The source holds these as a separate data set.

Several values for one entry are separate records, joined by “and”; a condition that tells them apart may be missing. Equal entries are not always repeated. Where two headings read alike, the source gives them in different places.

For “TOG2 domain of Stu2p (domain or fragment)”, in test [1], the stoichiometry N was 1. The same substance gave a dissociation constant Kd in test [2] of 200 to 300 nM.

Regarding “αβ-tubulin (unpolymerized, as used in gel filtration and analytical ultracentrifugation) (from UniProt P09733 1-447; P02557 1-457) (complex)”, the stoichiometry N in test [3] is 1 and 2; in test [4] it was 1.
